Test results as given in patent US6027911.

What was measured:
[1] = biological target: Met-Asp-human growth hormone (human) (UniProt P01241)
[2] = biological target: Met-Arg-Human Proinsulin Analog (B28 Lys, B29 Pro) (human) (UniProt P01308)

human growth hormone (hGH) conversion yield (reverse phase chromatography) [1]: 37% | extent of conversion of MR-KPB-hPI to KPB-hPI (reverse phase HPLC) [2]: 98%
Substance: bovine dipeptidylaminopeptidase 1 (enzyme)
